Values quoted from earlier work, collected in article PMC7550760.

Molecular target: His84 (UniProt position 104, ACRVNHVTLSQ)
Details: monomeric native-like protein implied; not stated

Substance | pKa
beta2-microglobulin (wild type, full length) (Homo sapiens) | 4.1
beta2-microglobulin deltaN6 variant (Homo sapiens; del1-6) | 5.9
